This note sets out measurements from patent US9267116B2, “Amino acid dehydrogenase, and process for producing L-amino acid, 2-oxo acid or D-amino acid” (KANEKA CORPORATION, priority 2008, dated 2016).

A short description of this data set: Properties of the purified amino acid dehydrogenase (specific activity, action temperature and pH), NADH decline at 340 nm. It is filed as biochemical, Rhodococcus qingshengii strain KNK2108. To be noted: 30° C., pH 9.0, phenylpyruvic acid substrate; 1 unit = 1 μmol NADH consumed in 1 minute. As for the experimental part:
In the embodiments, the amino acid dehydrogenase activity of the polypeptide can be measured, for example, based on the rate of decline in the absorbance at a wavelength of 340 nm when 1.2 mL of 0.5 M NH3/NH4Cl buffer (pH 9.0), 0.2 mL of 0.1 M sodium carbonate buffer (pH 9.0) containing 3 mM NADH coenzyme, and 0.1 mL of an appropriately diluted enzyme solution are added to 1.5 mL of 0.1 M sodium carbonate buffer (pH 9.0) containing 10 mM phenylpyruvic acid as substrate and a reaction is run for 1 minute at 30° C. In the embodiments, the amino acid dehydrogenase activity was measured using this method unless indicated otherwise.
The activity of the amino acid dehydrogenase was measured based on the rate of decline in the absorbance at a wavelength of 340 nm when 1.2 mL of 0.5 M NH3/NH4Cl buffer (pH 9.0), 0.2 mL of 0.1 M sodium carbonate buffer (pH 9.0) that contained 3 mM NADH coenzyme, and 0.1 mL of the appropriately diluted enzyme solution were added to 1.5 mL of 0.1 M sodium carbonate buffer (pH 9.0) that contained 10 mM phenylpyruvic acid substrate and a reaction was carried out for 1 minute at 30° C. 1 unit is defined here as the quantity of enzyme that consumed 1 μmol NADH in 1 minute. The protein was quantified by the Bradford method using BSA as the reference protein.
The action temperature range and the optimal temperature were examined. […]

B1: purified amino acid dehydrogenase: amino acid dehydrogenase purified from Rhodococcus qingshengii strain KNK2108 (Example 1), SEQ ID NO:1, classified as phenylalanine dehydrogenase (protein, listed as Rhodococcus qingshengii)
chain: MSIDDELRWDGELTVTRHDRETGTTFVIRIDSTRLGPASGGTRAAHYPSIGHALADAGKLAGAMTLKMAVSDLPMGGGKSVIALPAPRNQIDAATWSRILGIHAENIDKLEGNYWTGPDVNTNSSDMDQLSRTTRYVFGRSVDKGGAGSSAHATALGVFEAMKATARRRGLGTLDGRTVLVQGLGAVGGDVVRLAAQAGARLLVADTDPQRLEAASLAGHTVVPAGEVLRTPCDLFAPCAMGGIIDFAAAASIPTLAVAGAANNILTDAAAGEVLRDRGVLCAPDFVANAGGAFHLVGREVLGWNEDYVVERTRGIGRTLDEVYSLSEERGITTEAAALMLARARLSPASTAAAATSAAPAAAAASPA
On to B1, for which the specific activity was found to be 204 units/mg protein.
